These results are taken from IntAct's records for PubMed 26449471.

To fix the notation:
B1: Sestrin-2 (Homo sapiens), P58004 (parent)
chain: MIVADSECRAELKDYLRFAPGGVGDSGPGEEQRESRARRGPRGPSAFIPVEEVLREGAESLEQHLGLEALMSSGRVDNLAVVMGLHPDYFTSFWRLHYLLLHTDGPLASSWRHYIAIMAAARHQCSYLVGSHMAEFLQTGGDPEWLLGLHRAPEKLRKLSEINKLLAHRPWLITKEHIQALLKTGEHTWSLAELIQALVLLTHCHSLSSFVFGCGILPEGDADGSPAPQAPTPPSEQSSPPSRDPLNNSGGFESARDVEALMERMQQLQESLLRDEGTSQEEMESRFELEKSESLLVTPSADILEPSPHPDMLCFVEDPTFGYEDFTRRGAQAPPTFRAQDYTWEDHGYSLIQRLYPEGGQLLDEKFQAAYSLTYNTIAMHSGVDTSVLRRAIWNYIHCVFGIRYDDYDYGEVNQLLERNLKVYIKTVACYPEKTTRRMYNLFWRHFRHSEKVHVNLLLLEARMQAALLYALRAITRYMT
partner: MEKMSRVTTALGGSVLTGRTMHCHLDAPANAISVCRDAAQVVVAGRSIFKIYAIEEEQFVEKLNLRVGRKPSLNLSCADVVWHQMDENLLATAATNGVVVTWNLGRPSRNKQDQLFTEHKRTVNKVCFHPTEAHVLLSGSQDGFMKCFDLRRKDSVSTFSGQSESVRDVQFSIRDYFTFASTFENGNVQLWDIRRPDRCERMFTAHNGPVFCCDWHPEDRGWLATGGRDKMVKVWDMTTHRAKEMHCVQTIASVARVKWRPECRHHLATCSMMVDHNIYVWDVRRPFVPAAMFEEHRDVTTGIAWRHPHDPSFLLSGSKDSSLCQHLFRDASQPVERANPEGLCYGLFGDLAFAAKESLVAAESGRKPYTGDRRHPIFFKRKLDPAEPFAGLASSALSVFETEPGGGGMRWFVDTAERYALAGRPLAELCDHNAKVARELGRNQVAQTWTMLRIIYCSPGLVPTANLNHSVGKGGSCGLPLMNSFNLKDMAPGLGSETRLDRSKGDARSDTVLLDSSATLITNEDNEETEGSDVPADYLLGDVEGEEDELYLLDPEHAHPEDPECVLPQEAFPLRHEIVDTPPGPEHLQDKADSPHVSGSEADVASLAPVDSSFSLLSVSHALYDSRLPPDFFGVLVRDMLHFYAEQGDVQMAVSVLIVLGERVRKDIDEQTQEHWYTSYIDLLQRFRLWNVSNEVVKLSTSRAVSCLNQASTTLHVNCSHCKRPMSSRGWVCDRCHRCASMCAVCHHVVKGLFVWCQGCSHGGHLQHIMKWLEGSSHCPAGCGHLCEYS

The experiment covers variants of B1. Conditions: with wdr24_human WDR24, Q96S15.
In the case of S190W, the “effect of a mutation on the interaction” value is on record as “disrupting interaction strength”.
